In patent US20200115460A1 one finds activation of the IGF-I receptor (PathHunter, solvent group = 100%) and activation of the insulin receptor (PathHunter, solvent group = 100%) data, which are given here for two substances.

Assay [1] has as its target IGF-I receptor (cell line of the PathHunter IGF1R Functional Assay, DiscoverX) (UniProt P08069). In words: cell-based or functional assay.
The target in assay [2] is insulin receptor (cell line of the PathHunter INSR Functional Assay, DiscoverX) (UniProt P06213). The experiment in a line: cell-based or functional assay.

In the case of FLAG M2 antibody, in assay [1], the activation of the IGF-I receptor (PathHunter, solvent group = 100%) at 5 nM came out at 109% and the activation of the IGF-I receptor (PathHunter, solvent group = 100%) at 50 nM was found to be 109%. In assay [2], this substance came in with an activation of the insulin receptor (PathHunter, solvent group = 100%) at 5 nM of 104% and an activation of the insulin receptor (PathHunter, solvent group = 100%) at 50 nM of 111%.

Insulin (ligand): in assay [1], the activation of the IGF-I receptor (PathHunter, solvent group = 100%) at 0.5 nM stood at 184%; the activation of the IGF-I receptor (PathHunter, solvent group = 100%) at 5 nM was 1240%; the activation of the IGF-I receptor (PathHunter, solvent group = 100%) at 50 nM turned out to be 4620%.
